Experimental data published in IntAct's records for PubMed 28712572.

Biological target: gbrap_human GABARAP (UniProt O95166)
Sequence (O95166 whole entry): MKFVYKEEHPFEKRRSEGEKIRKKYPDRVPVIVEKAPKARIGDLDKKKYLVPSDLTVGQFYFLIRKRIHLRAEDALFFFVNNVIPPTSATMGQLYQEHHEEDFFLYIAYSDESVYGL

| effect of a mutation on the interaction | Substance |
| --- | --- |
| with no effect | Pericentriolar material 1 protein (Homo sapiens), Q15154 E1960R |
| with no effect | Pericentriolar material 1 protein (Homo sapiens), Q15154 E1960T |
| with no effect | Pericentriolar material 1 protein (Homo sapiens), Q15154 E1960W |
| with no effect | Pericentriolar material 1 protein (Homo sapiens), Q15154 E1961A |
| with no effect | Pericentriolar material 1 protein (Homo sapiens), Q15154 E1961C |
| with no effect | Pericentriolar material 1 protein (Homo sapiens), Q15154 E1961F |
| with no effect | Pericentriolar material 1 protein (Homo sapiens), Q15154 E1961G |
| disrupting interaction strength | Pericentriolar material 1 protein (Homo sapiens), Q15154 E1961K |
| with no effect | Pericentriolar material 1 protein (Homo sapiens), Q15154 E1961L |
| with no effect | Pericentriolar material 1 protein (Homo sapiens), Q15154 E1961T |
| with no effect | Pericentriolar material 1 protein (Homo sapiens), Q15154 E1967C |
| with no effect | Pericentriolar material 1 protein (Homo sapiens), Q15154 E1967K |
| with no effect | Pericentriolar material 1 protein (Homo sapiens), Q15154 E1967M |
| with no effect | Pericentriolar material 1 protein (Homo sapiens), Q15154 E1967N |
| with no effect | Pericentriolar material 1 protein (Homo sapiens), Q15154 E1967P |
| with no effect | Pericentriolar material 1 protein (Homo sapiens), Q15154 E1967S |
| with no effect | Pericentriolar material 1 protein (Homo sapiens), Q15154 E1967V |
| with no effect | Pericentriolar material 1 protein (Homo sapiens), Q15154 E1967W |
| disrupting interaction strength | Pericentriolar material 1 protein (Homo sapiens), Q15154 F1963A |
| disrupting interaction strength | Pericentriolar material 1 protein (Homo sapiens), Q15154 F1963C |
| disrupting interaction strength | Pericentriolar material 1 protein (Homo sapiens), Q15154 F1963D |
| disrupting interaction strength | Pericentriolar material 1 protein (Homo sapiens), Q15154 F1963K |
| disrupting interaction strength | Pericentriolar material 1 protein (Homo sapiens), Q15154 F1963L |
| disrupting interaction strength | Pericentriolar material 1 protein (Homo sapiens), Q15154 F1963M |
| disrupting interaction strength | Pericentriolar material 1 protein (Homo sapiens), Q15154 F1963P |
| disrupting interaction strength | Pericentriolar material 1 protein (Homo sapiens), Q15154 F1963S |
| disrupting interaction strength | Pericentriolar material 1 protein (Homo sapiens), Q15154 F1963T |
| disrupting interaction strength | Pericentriolar material 1 protein (Homo sapiens), Q15154 F1963V |
| with no effect | Pericentriolar material 1 protein (Homo sapiens), Q15154 G1952C |
| with no effect | Pericentriolar material 1 protein (Homo sapiens), Q15154 G1952D |

Continued, substance first:

| Substance | effect of a mutation on the interaction |
| --- | --- |
| Pericentriolar material 1 protein (Homo sapiens), Q15154 E1960Q | with no effect |
| Pericentriolar material 1 protein (Homo sapiens), Q15154 E1960S | with no effect |
| Pericentriolar material 1 protein (Homo sapiens), Q15154 E1960V | decreasing interaction strength |
| Pericentriolar material 1 protein (Homo sapiens), Q15154 E1960Y | with no effect |
| Pericentriolar material 1 protein (Homo sapiens), Q15154 E1961D | with no effect |
| Pericentriolar material 1 protein (Homo sapiens), Q15154 E1961H | with no effect |
| Pericentriolar material 1 protein (Homo sapiens), Q15154 E1961I | with no effect |
| Pericentriolar material 1 protein (Homo sapiens), Q15154 E1961M | decreasing interaction strength |
| Pericentriolar material 1 protein (Homo sapiens), Q15154 E1961N | with no effect |
| Pericentriolar material 1 protein (Homo sapiens), Q15154 E1961P | decreasing interaction strength |
| Pericentriolar material 1 protein (Homo sapiens), Q15154 E1961Q | with no effect |
| Pericentriolar material 1 protein (Homo sapiens), Q15154 E1961R | decreasing interaction strength |
| Pericentriolar material 1 protein (Homo sapiens), Q15154 E1961S | with no effect |
| Pericentriolar material 1 protein (Homo sapiens), Q15154 E1961V | decreasing interaction strength |
| Pericentriolar material 1 protein (Homo sapiens), Q15154 E1961W | with no effect |
| Pericentriolar material 1 protein (Homo sapiens), Q15154 E1961Y | with no effect |
| Pericentriolar material 1 protein (Homo sapiens), Q15154 E1967A | with no effect |
| Pericentriolar material 1 protein (Homo sapiens), Q15154 E1967D | with no effect |
| Pericentriolar material 1 protein (Homo sapiens), Q15154 E1967F | with no effect |

| Substance | effect of a mutation on the interaction |
| --- | --- |
| Pericentriolar material 1 protein (Homo sapiens), Q15154 E1967G | with no effect |
| Pericentriolar material 1 protein (Homo sapiens), Q15154 E1967H | with no effect |
| Pericentriolar material 1 protein (Homo sapiens), Q15154 E1967I | with no effect |
| Pericentriolar material 1 protein (Homo sapiens), Q15154 E1967L | with no effect |
| Pericentriolar material 1 protein (Homo sapiens), Q15154 E1967Q | with no effect |
| Pericentriolar material 1 protein (Homo sapiens), Q15154 E1967R | with no effect |
| Pericentriolar material 1 protein (Homo sapiens), Q15154 E1967T | with no effect |
| Pericentriolar material 1 protein (Homo sapiens), Q15154 E1967Y | with no effect |
| Pericentriolar material 1 protein (Homo sapiens), Q15154 F1963E | disrupting interaction strength |
| Pericentriolar material 1 protein (Homo sapiens), Q15154 F1963G | disrupting interaction strength |
| Pericentriolar material 1 protein (Homo sapiens), Q15154 F1963H | disrupting interaction strength |
| Pericentriolar material 1 protein (Homo sapiens), Q15154 F1963I | disrupting interaction strength |
| Pericentriolar material 1 protein (Homo sapiens), Q15154 F1963N | disrupting interaction strength |
| Pericentriolar material 1 protein (Homo sapiens), Q15154 F1963Q | disrupting interaction strength |
| Pericentriolar material 1 protein (Homo sapiens), Q15154 F1963R | disrupting interaction strength |
| Pericentriolar material 1 protein (Homo sapiens), Q15154 F1963W | with no effect |
| Pericentriolar material 1 protein (Homo sapiens), Q15154 F1963Y | decreasing interaction strength |
| Pericentriolar material 1 protein (Homo sapiens), Q15154 G1952A | with no effect |
| Pericentriolar material 1 protein (Homo sapiens), Q15154 G1952E | with no effect |
